According to patent US20170198056A1 (MEDICINAL CHEMISTRY PHARMACEUTICALS, published 2017):
*: point of attachment. αGalNAc = CC(=O)N[C@@H]1[C@@H](O)[C@@H](O)[C@@H](CO)O[C@@H]1*

Assays:
[1] = target: T1, Compound 15: 5-oxohexanoyl-Ser-Ala-Ser-Thr-Gly-His-Ala-Thr(Tn)-Pro-Leu-Pro-Val-Thr-Asp-Thr-Ser-Cys-NH2 (human); assay: glycopeptide microarray, Cy3 anti-mouse IgG
T1 construct: also called glycopeptide in which Tn has been modified in the tandem unit peptide of MUC4
T1 peptide: {5‑oxohexanoyl}-SASTGHAT(αGalNAc)PLPVTDTSC-NH2

[2] = target: T2, Compound 13: … (human); assay: glycopeptide microarray, Cy3 anti-mouse IgG
T2 construct: also called glycopeptide in which Tn has been modified in the tandem unit peptide of MUC2
T2 peptide: {5‑oxohexanoyl}-PPTT(αGalNAc)T(αGalNAc)PSPPPTSTT(αGalNAc)T(αGalNAc)LPPT-NH2

B1: Monoclonal antibody SN-101 (antibody, V domains shown)
VH: EVNLEESGGGLVQPGGSMKLSCVASGFTFSNYWMNWVRQSPEKGLEWVAQIRLKSDNYATHYAESVKGRFTISRDDSKSSVYLQMNNLRAEDTGIYYCTGGVFDYWGQGTTLTVSS
VL: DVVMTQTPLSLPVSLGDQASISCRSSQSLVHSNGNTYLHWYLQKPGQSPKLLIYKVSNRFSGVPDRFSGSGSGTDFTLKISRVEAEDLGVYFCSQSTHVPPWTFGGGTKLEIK
notes: Mouse monoclonal antibody from a hybridoma; it was purified on Protein G and detected with anti-mouse IgG; The array assay used culture supernatant diluted 10-fold; also called antibody of hybridoma strain 3A9-4B1 (NITE BP-01845)
B1: no binding [1]; no binding [2].
